Assays:
Fibrinogen (bovine) = molecular target: T1, Fibrinogen (bovine) (bovine, UniProt P02672 20-615; P02676 1-468; P12799 25-444); test: MSD specificity profiling, coated protein, Camille at 10 nM
T1 sequence (looked up) 1: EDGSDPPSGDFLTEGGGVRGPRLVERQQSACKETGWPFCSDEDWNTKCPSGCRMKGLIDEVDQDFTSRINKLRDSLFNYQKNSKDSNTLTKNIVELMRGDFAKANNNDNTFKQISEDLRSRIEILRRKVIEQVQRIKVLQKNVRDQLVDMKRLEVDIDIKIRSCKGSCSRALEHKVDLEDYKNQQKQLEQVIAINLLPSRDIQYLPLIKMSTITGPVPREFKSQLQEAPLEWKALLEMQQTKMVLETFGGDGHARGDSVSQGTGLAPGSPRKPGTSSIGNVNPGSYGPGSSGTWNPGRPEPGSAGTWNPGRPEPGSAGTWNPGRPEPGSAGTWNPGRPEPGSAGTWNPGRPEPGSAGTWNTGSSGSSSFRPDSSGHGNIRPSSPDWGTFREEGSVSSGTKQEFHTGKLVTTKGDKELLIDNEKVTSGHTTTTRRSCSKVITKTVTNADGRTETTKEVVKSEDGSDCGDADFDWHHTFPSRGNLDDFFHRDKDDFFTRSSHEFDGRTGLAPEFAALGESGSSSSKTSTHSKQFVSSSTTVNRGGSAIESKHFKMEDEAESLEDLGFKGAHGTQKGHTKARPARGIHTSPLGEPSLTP
T1 sequence (looked up) 2: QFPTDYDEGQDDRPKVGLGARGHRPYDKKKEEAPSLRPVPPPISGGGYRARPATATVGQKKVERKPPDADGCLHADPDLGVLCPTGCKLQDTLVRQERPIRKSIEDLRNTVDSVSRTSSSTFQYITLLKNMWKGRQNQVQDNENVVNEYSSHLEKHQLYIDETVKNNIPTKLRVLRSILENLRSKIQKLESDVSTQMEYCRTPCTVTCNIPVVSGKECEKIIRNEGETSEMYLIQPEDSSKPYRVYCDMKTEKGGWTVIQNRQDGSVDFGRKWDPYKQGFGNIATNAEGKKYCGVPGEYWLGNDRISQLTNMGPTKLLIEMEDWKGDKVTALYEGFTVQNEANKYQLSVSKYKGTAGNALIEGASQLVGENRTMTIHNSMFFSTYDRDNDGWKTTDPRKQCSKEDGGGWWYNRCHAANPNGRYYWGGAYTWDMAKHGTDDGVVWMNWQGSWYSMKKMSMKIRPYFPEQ
T1 sequence (looked up) 3: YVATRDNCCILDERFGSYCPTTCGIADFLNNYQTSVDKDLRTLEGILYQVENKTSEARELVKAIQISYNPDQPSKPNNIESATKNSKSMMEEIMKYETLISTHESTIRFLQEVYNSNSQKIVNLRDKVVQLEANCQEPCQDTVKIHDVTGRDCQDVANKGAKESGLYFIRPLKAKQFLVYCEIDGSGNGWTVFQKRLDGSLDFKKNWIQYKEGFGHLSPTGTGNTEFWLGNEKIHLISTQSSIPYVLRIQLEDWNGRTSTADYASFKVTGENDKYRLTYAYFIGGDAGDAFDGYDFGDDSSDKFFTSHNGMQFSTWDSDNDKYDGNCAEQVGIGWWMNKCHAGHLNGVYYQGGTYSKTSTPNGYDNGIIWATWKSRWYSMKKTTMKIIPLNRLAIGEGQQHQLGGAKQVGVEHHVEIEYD
Experimental: (§1) For this specificity profiling test the different proteins and controls were coated on two 384-well MSD plates with a concentration of 1 μg/ml at 4° C. over night. Plates were blocked with BSA and washed three times with PBS with 0.05% (v/v) Tween 20. Antibody samples were diluted to 100 nM and 10 nM in assay buffer (PBS with 0.5% (w/v) BSA, 0.05% (v/v) Tween 20). […] Samples and controls were incubated for three hours at room temperature. The plates were washed three times and 30 μl detection antibody (ECL-labeled anti-human Fab) were added per well and incubated for 1 h. After washing, MSD Read Buffer T with surfactant was added and electrochemiluminescence signals were detected using a Sector Imager 6000 (Meso Scale Discovery, Gaithersburg, Md., USA).

Cytokine 2 (human) = Cytokine 2 (human) (human); test: as above
Experimental: as §1

[1] = molecular target: T2, Recombinant human sgM-CSF (human, UniProt P09603 33-255); test: Table 12 summary, criterion Binding, Human M-CSF; assay and antibody format not named there
T2 construct: also called human secreted glycosylated M-CSF; Human M-CSF
T2 sequence: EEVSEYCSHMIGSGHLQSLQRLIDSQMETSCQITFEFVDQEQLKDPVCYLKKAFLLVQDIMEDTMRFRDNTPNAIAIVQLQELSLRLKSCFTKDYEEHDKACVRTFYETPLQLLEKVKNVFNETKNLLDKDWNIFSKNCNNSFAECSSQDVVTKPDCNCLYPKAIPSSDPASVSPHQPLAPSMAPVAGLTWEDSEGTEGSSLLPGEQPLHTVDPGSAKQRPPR
Experimental: The monovalent affinity of the antibodies of the present disclosure was determined by soluble equilibrium titration (Haenel et al. (2005) Anal Biochem 339, 182-4).

B1: Camille (format not stated) (antibody, V domains shown)
VH: QVQLQQSGPGLVKPSQTLSLTCAISGESVSTSSAAWNWIRQSPSRGLEWLGRTYYRSKWKHEYAVSVKSRITINPDTSKNQFSLQLNSVTPEDTAVYYCARDRYYYSAFDYWGQGTLVTVSS
VL: QSALTQPASVSGSPGQSITISCTGTSSDVGGYNSVSWYQQHPGKAPKLLIYAVSNRPSGVSNRFSGSKSGNTASLTISGLQAEDEADYYCASYDERFTRVFGGGTKLTVLG
notes: also called Antibody Camille
In the case of B1, the “signal normalized to reference antibody MOR03207” value (Fibrinogen (bovine)) is reported as 1 ratio, the “signal normalized to reference antibody MOR03207” value (Cytokine 2 (human)) is reported as 1 ratio and the Kd [1] is reported as 18 pM.
